From the DeepSol protein solubility set

Assay: soluble on expression in E. coli; label from the status in PepcDB or PDB records

Soluble on expression in E. coli, soluble:
MTKVSIIVPVYNTKNYVPRLLTSIEKQTYTNWELILVDDHSNDGTYELLLEFKDRYPNKVEVLKTPKPRSGPMIGKNMGIEVSSGKFLAFVDSDDWWSETFLKDTVSNIKSFGGVSTEYYDVFEDSDKKVHVKASKHGVVSWEDVLKLKARFGNGNSLLRRKIVENYGIRFPEHLWYSEDIYFYTQYLSVIDRIYVVPSPDFYHLVRGASMVRSDKIKQESKIEQTIRVYEEVCTRIQEISKVSDEVCKLLKSYQMPYSIMTYITSVSDSLGRAEARKLFWKYLDYLKGYRLTRSHQSYLTLLWILDLFIPIRGILRRLIGLEHHHHHH
SKRVNSCVKDEEHVLEELETEGERQLKSLLQHQLDTSVSIEECVSKKKSFAPGTMYKPFGKEAAGTMTLSQFQTLHEKDQETASLRELGLNETEILIWKSHVSGEKRTKLRATPEAIQKRLEDIKERISERQRILCLPQRFSKSKQLTRREMEIEKSLFQGTDRHSFLKALYYQDEPPKKNKGDPMNNLEHFYRETIMKKRLEEFQLLRGESFACHSLVSAASVSGSGTAEKPSLLQDKGKQAAQGKGPRLHVAKLIDFPTEQYWTGPKTLKQPIEFIPEDEIQRNRLSEEEIRNIPMFSSYNPGEPNKVLYLKNLSPRVKERDLISLFARFQEKKGPPIQFRMMTGRMRGQAFLTFPNKDIAWQALHQINGYKLYGKILVIEFAKSKKQQSAVQRSSLITSAPDGRTEINGS
MSLMKRQFEDVTRIVIKIGTSSLVLPTGKINLEKIDQLAFVISSLMNKGKEVILVSSGAMGFGLDILKMEKRPTNLAKQQAVSSVGQVAMMSLYSQIFAYYQTNVSQILLTRDVVVFPESLANVTNAFESLISLGIVPIVNENDAVSVDEMDHATKFGDNDRLSAVVAGITKADLLIMLSDIDGLFDKNPTIYEDAQLRSHVANITQEIIASAGGAGSKFGTGGMLSKVQSAQMVFENKGQMVLMNGANPRDILRVLEGQPLGTWFKQIEEVRHDEGHHHHHH
SAEHVLTMLNEHEVKFVDLRFTDTKGKEQHVTIPAHQVNAEFFEEGKMFDGSSIGGWKGINESDMVLMPDASTAVIDPFFADSTLIIRCDILEPGTLQGYDRDPRSIAKRAEDYLRATGIADTVLFGPEPEFFLFDDIRFGASISGSHVAIDDIEGAWNSSTKYEGGNKGHRPGVKGGYFPVPPVDSAQDIRSEMCLVMEQMGLVVEAHHHEVATAGQNEVATRFNTMTKKADEIQIYKYVVHNVAHRFGKTATFMPKPMFGDNGSGMHCHMSLAKNGTNLFSGDKYAGLSEQALYYIGGVIKHAKAINALANPTTNSYKRLVPGYEAPVMLAYSARNRSASIRIPVVASPKARRIEVRFPDPAANPYLCFAALLMAGLDGIKNKIHPGEPMDKNLYDLPPEEAKEIPQVAGSLEEALNALDLDREFLKAGGVFTDEAIDAYIALRREEDDRVRMTPHPVEFELYYSV
MTLNLSVDEVLTTTRSVRKRLDFDKPVPRDVLMECLELALQAPTGSNSQGWQWVFVEDAAKKKAIADVYLANARGYLSGPAPEYPDGDTRGERMGRVRDSATYLAEHMHRAPVLLIPCLKGREDESAVGGVSFWASLFPAVWSFCLALRSRGLGSCWTTLHLLDNGEHKVADVLGIPYDEYSQGGLLPIAYTQGIDFRPAKRLPAESVTHWNGW
MAIKGPRKHLKRLAAPANWQLPRKVKTFTVRPSPGPHSMDKSLPLLLVVRDVLKYADNAREAKKIIQTGKILIDGLKRKEYKHPAGLMDVLSIPEMDETYLVLFDESGRISLKKTDKTDVKLCKIVNKTVVKGGNIQLNLHDGRNQIVKVSDAAKAEEDVYKTGDSVLISIPEQSIAGHVAFGEGKLAYITGGKHVGEFAKIVEVENRALYSDIVTLENKDGEKFKTVKPYVFIVGQDEPVISMLEHHHHHH
MAHHHHHHMSDAPHRQSSTPASSFLPPEPLCVADILSELLPFLLAAPQPRDGCPPSSSAQEPAESPVLLIPPTVASEHRVQVSIRGRRYETALEVALTYSLFFFVFFHWPFSEEDESSDAAGCASDVAHVKRAPRSVGDAVMAAASARDLPKEAHLLRHYTRVVEPVLRVFLDHWAAPLDAAAAAQGEGESAARAETAEAGDAARLPLLPPLPHPVRIAYDASTRVWKFEFAARLTAGAAAEARSGRQCDDSSAAVSLAAADGCAAVATDKLNNSPFLLLQSEYMGLLLVFLRRCAKVRAERRAAGEGAAACALAPYPSLPIRWEEMNYDEQLSVVQLIRRFGVVSLARTYTRPTAPETTSLYIGEEAAAATARVKVEGDACSLRARASESMGKQQQKIQQAASVAVDTAEVVKKERCINEDDFDGLVLSAKGCARCGMAEHSTEECHF
GSDITSLYKKAGSEMNGPRCPVQTVGQWLESIGLPQYENHLMANGFDNVQFMGSNVMEDQDLLEIGILNSGHRQRILQAIQLLPKMRPIGHDGYHPTSVAEWL

Soluble on expression in E. coli, not soluble:
MAHHHHHHMEGEEKVELSQLELKLEELQVIWEDVQATCPATHSSKRRNSSDAVASPPRVRSTSGAAQRQGANTQEPLQLPSPQSKHPSLRLLHANNKGKLRCTNPVASEGAVLGGIVSVSPPHSPANASVGACPHGRDGGVRNCVPSRLPPLDASHAQELLKACSNCGVEQRRPTAQFCWNCGTRI
MGSDKIHHHHHHMSNEHQLLVGLLKKLKDDALILPTLPEVAMRVQEVVGRPDSSLKQVAEIIGQDAAISARIIKVANSALYSRGVPAENINSAVTRIGLTQIKSIATSVAMEQLFISTNEMVWEVMDEVWRTSIDVTAAACSLLQIYNKKHPGSGLNYDTLTLAGLVHNIGALPVLTEAEAHPEMFTTIEHLRSLVRKMQGPIGRAVLKSWDFAPEVMEVVERWADLPYLGDHVSYLDFIRAAAFYTGELRAGNELEQRLDVFVKRGLPVSPEDLGSDAFLDSYHSIKASYE
MGSDKIHHHHHHMSFYIYGILTLPAPQNLNLEGLDRQPVQIKILDDFAVIYSEAQQERYLASRRNLLSHEKVLEEIMQAGDRYLLPVQFGLLVSSWETVSQQLIRPHQEELTQLLAKLSGCREVSVKVFWDTEAEIQGLLAEHPNLKTERDKLVGQPLSMERVIQIGQVIEQGMSDRKQGIIDVFKGTLNSIAIEVVENTPQVDTMIYNSAYLIPWEAESQFSEHVESLDRQFENRLRIRYNNFTAPYNFARLRLTTSN
AHHHHHHGSKGILPYVIFRSKKGTFALDAYLALRVEKVERIATLIRKAEVVKRAFDIPPNADLTLEELSEFLESSMEKIRKNAGESFDRRLKKIRRWNLARLFGIPTGHTRHIAEDEHLSREHRESLLALSILENVCRGGIEPIGYGVVDVEVKEGKVYINGKLDPVYTELIKIDMKAALALLEILSE
MSLDEIAVPILSIITLSSYQPDTIALVDDFSSVSYRNAIIHIETVSEQIASCVANSLTKRVMAYFAGSAEMVLAILGAQLSGAAYIPIEPKTPGSRIDAIADVAKPCMIMTDSQNRQGAQSIAERLGIPLVVLSLKKAGKTLDIFREGYREQPFTVERLTSSTPAVVFFTSGSTGTPKGVELSHLGYYRWFEGVQDLIQVKRGDRVALTTNHSFDLSLGELYLGLMSGATLYVPRQSTVRDPLSLVPWLDQHEITVFQSVPSLMRRILLFRESAGQGLETVRTIMFCGEPLEQQLVKKVKDSFPFSHTRILNLYGPVEASVQVTYCWAEEYLGSEDVIIPLGKPLKHVVVRLAEVDDTSHELQITGDHLALRYLDEKKTRESFINDEAEGTRFYRTGDLGRLNARGDLEYHGRVDDQVKINGYRIELGEIEKTIIDHFKATDCCVLIEKSEGEPSLVAFVVSPNDSVADLRRAVADHLPTYMIPRTVIFIESIPLNTNGKRDKPSLRAEYLKEGHHHHHH
MAHHHHHHMGNTVPYNCYERWGKRTPDGPLLNYDPQMPNSGTLSVLLENFDYESTEESNNKCEYIINKEPIEKNNNMNPKVIRNARRRPTYSPTARKINIQSDDEEEDEDDDEKLSTDDSDENISAKDIKDEKIQQYRKTLTKIVKIKTAIFHETVKVTCSKDGKMLEWYKGKNDSDGKKKPIGSFPLNKITSIRTKVDNLKSLEISVSSVHISTYLFTFKTREERESWQNNLESFRKIMSMK
MSFEKLQKELHEAIEGVNRYNPENVADLAACVQAMVNENKYDKDIVLTILKLYQLNPEKYDEAVVRQVLLKTLMVLPSSDFALAKCLIDTNRLGSQELRRIFDLGAVLESCNFAVFWKLVKGAYKPTTNPNEPFKVPGEVPKMIKPMVGFEDAVKHYACRVISVTFQKIEKKMLSRLLGGASDKEVTALAQSFGWEAKENGDVFFVANHEGTIKTRNIDEKIQFPHVADLLTSIQPPLTL
MGSDKIHHHHHHMIDLHCHILPNIDDGAKSIDEAIALVALAAEQGVSRMVATPHIHLGIYDNNLQSINAAYHLLCDALALTNIDIQLRAAAEVRVSPEIMLFIEQQQLPFLGRYQQKDVLLLELPSSHIPPGTDKLISWLLAKNVLPMIAHPERNRELQSHPERITPFVRAGCLFQLTAASLIGDMGEAPKQLSEYFIKQKLYSIIGSDCHSLNRRPPKLLQAQHAVTALTDQEYAFALTTSMPGSISNVLFAESSD
MADKKAPAAGWPVANGEYVVGNPESCVAVITLGSHGLDQAAIDAGAAISGPCHTENLGIEKVVANYISNPNIRFMVIAGSEVQGHITGQCIKALYENGIGDDGGIIGAKGAIPFMENVGKEPVGRLQTQVVECIDLIDVEDKGKIADAIKNCISKDPGAFEEDPMVIELEGGAAAAGDEEGGLMIEGIPTVAEPDIESIKSLNEALDYKVGLMTRDLGLASGVQTETVTG
MPVDRGAVRDAAKYLRGVRPLDPAALREYVPGQPHEAVVRQVLREQAADLGIIERADGTFVVPPEEPVGPPFNGVSALPERYERVVEAELTAAYGPDWHRGDTGDSLRETIRRFKDDYYRRNPVEYDREVALGYAVYHLAGYYAAVQYVLAGLARDGLLGHDLRVLDLGAGVGGPAVGLFDFLPDEALVEYHAVEPSAAADVLDALLAETPRNVHTTIHRETAESFQPAGEYDLVLACSVLSELDDAASVLRKYADAMAADGTALALAPADKHTSTHLRAVERAVEDDPFTVYGPTPRLWPDRRPTDSGWSFDERPAVEVPAVQSRLADASQDPGEFRHTDVRFSYSLLRRDDRRRHAVELSGDRLLALGDADDRVTDRADLLVAKLSRNLAGADANPVFRVSDGSQTTDCYAVLVRPTSLNGGIEAADYGDLVSIEDALVLWNDDEDAYNLVVDEETVVDAV
MDSIERKKTKPYNINEKEILDIVAAKGSYLSSISENLEEVPPHKESSSRAESKKTITDEEVKKYIEALLNNFSSNRRKPLHIDAQVYECISDIVWAVRRKDFTVSGVISRILVEHIKENAGMIKKITGRDYKLLQP
MSLGVNFQPVAFTGRIDQSQREKKRITIPDVMKLVEEQTGGEIPCNAWYPVSFVVPISRFLSAMRNIPIPELTAHPHCGAGTYVFYEEGHFIPITNFFDVESFIELLKEITPEINGRVSRVLSLAKVIKQVPKFIDEKKGPKSVNTTRMILDLLKKGDMENTSRFHRNTLFLGTMHFQDLYNIDLERVKKCGVHYATPDGRIIPFCTYNEGHHHHHH
MGSDKIHHHHHHMKTIRIGSGAGYAGDRIEPAVELAQKGDIQYLVFECLAERTIAIGQKQKQQNPEKGYNELLADRMHAVLPLCLEKGIKIITDMGSANPVAAGQRVLEIAKELGADKLKIAIVTGDDVHSVLIAQDSKLDEIGLPISRCGKDILSANAYLGADALVEALRQGADVIIAGRVSDPSLFLSAMMYEFDWAADDWDRLGKGTCLGHLLECAGQITGGYYADPGVKDIPNLDRLGFPIAEITEDGSAVITKVEGSGGCVCVDTCKEQLLYEIHRPDSYITPDVIADFSHVTFTQDGENRVRVQGATGREKTGTLKVSVGYQDGFIGEGEISYAGPGAVARGRLALDIVKGRFALCQLDLQEVRYDLIGVDALHGAQRSQSSEPYEVRARVAARCTSRAQAVKVGNEVETLYTNGPAGGGGVNKSVKEILAMDSTLLSRACVTPAVDYLEIK
